Drawing on article PMC7991746, “Nucleophosmin Protein Dephosphorylation by DUSP3 Is a Fine-Tuning Regulator of p53 Signaling to Maintain Genomic Stability” (Frontiers in Cell and Developmental Biology, 2021), this text covers Kd for six molecules.

Residue numbers refer to the chain shown, from its start. Names and notes keep the numbering of the source. Non-standard residues stand in square brackets, D forms with d. No end group written: not given here. pY = N[C@@H](Cc1ccc(OP(=O)(O)O)cc1)C(=O)O

B1: DUSP3-WT (dual-specificity phosphatase 3) (enzyme, UniProt P51452 1-185, looked up)
chain: MSGSFELSVQDLNDLLSDGSGCYSLPSQPCNEVTPRIYVGNASVAQDIPKLQKLGITHVLNAAEGRSFMHVNTNANFYKDSGITYLGIKANDTQEFNLSAYFERAADFIDQALAQKNGRVLVHCREGYSRSPTLVIAYLMMRQKMDVKSALSIVRQNREIGPNDGFLAQLCQLNDRLAKEGKLKP
notes: DUSP3 (VHR), wild type, cDNA in pGEX-4T2 (Torres et al., 2017); Immobilised on a CM5 sensorchip; also called VHR; vaccinia virus H1-related phosphatase; source: E. coli BL-21 (DE3), purified (Glutathione-Sepharose 4B; GST removed by thrombin)
B2: DUSP3-C124S mutant (phosphatase dead) (enzyme, UniProt P51452 1-185, looked up)
chain: B1 chain with C124S
notes: DUSP3 (VHR) with the catalytic cysteine 124 substituted by serine, cDNA in pGEX-4T2 (Torres et al., 2017); Immobilised on a CM5 sensorchip; source: E. coli BL-21 (DE3), purified (Glutathione-Sepharose 4B; GST removed by thrombin)
B3: phospho-Y-decapeptide p-NPM(Y29) (peptide)
peptide: ADKD[pY]HFKVD
notes: Stretch of nucleophosmin around Y29; source: synthetic peptide, bought: Chinese Peptide Company
B4: phospho-Y-decapeptide p-NPM(Y271) (peptide)
peptide: EAKFIN[pY]VKN
notes: Stretch of nucleophosmin around Y271; source: synthetic peptide, bought: Chinese Peptide Company
B5: phospho-Y-decapeptide p-NPM(Y67) (peptide)
peptide: AMN[pY]EGSPIK
notes: Stretch of nucleophosmin around Y67; source: synthetic peptide, bought: Chinese Peptide Company
B6: phospho-Y-decapeptide p-NPM(Y17) (peptide)
peptide: SPLRPQN[pY]L
notes: Stretch of nucleophosmin around Y17; source: synthetic peptide, bought: Chinese Peptide Company

T1 sequence (P27361 whole entry): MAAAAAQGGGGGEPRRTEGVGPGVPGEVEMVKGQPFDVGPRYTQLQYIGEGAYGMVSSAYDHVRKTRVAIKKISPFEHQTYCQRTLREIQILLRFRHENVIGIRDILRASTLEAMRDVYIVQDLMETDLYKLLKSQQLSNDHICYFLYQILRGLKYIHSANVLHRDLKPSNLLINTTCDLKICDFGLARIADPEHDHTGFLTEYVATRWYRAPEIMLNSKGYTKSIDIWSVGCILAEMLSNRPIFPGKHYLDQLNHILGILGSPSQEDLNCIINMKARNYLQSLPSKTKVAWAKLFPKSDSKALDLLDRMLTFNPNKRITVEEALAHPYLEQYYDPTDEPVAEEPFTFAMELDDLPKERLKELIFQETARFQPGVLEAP

One assay addresses T1, ERK1 (UniProt P27361 1-379).
T1 construct: ERK1, cDNA in pGEX-4T2 donated by Prof; Rony Seger; The sentence on purification and on removal of GST names DUSP3 and NPM full length but not ERK1; source: E. coli BL-21 (DE3), purified recombinant protein
Kind of assay: SPR; Biacore T100; DUSP3-WT or DUSP3-C124S immobilised on CM5 sensorchip (200 RU); protein analytes 12.5-1,000 nM; kinetic assays at 25°C, HBS-EP buffer, 10 μl/min, 120 s association, 300 s dissociation; three independent experiments. The note with it: both partners purified.
Usually Kd stands for the equilibrium constant for the complex coming apart. Lower therefore signals tighter binding. In the case of B1, binding was characterised by a dissociation constant (Kd) of 0.178 µM.
The same measure, in the same setting: the figure for B2 is 0.13 µM.

The next assay addresses B1. The assay can be described thus: SPR; Biacore T100; DUSP3-WT immobilised on CM5 sensorchip (3,000 RU); peptides 5-40 μM in HBS-N buffer; 25°C, 120 s association, 300 s dissociation, 10 μl/min; three independent experiments. The note with it: both partners purified. In general terms: SPR reads the build-up and loss of mass on a sensor chip optically.
Regarding B3, the Kd was 2.34 µM.
The same measure, in the same setting: the same measure for B4: 2.07 µM; for B5: 2.01 µM; for B6: 1.62 µM.
